# Assay results reported in patent US20210061908A1 (IOMX THERAPEUTICS, published 2021).
# Changes are numbered by the printed parent chain.
# T1: extracellular domain (ECD) of murine IGSF11, biotinylated (mouse, UniProt P0C673 23-240, biotinylated (site not stated))
# T1 construct: also called Mouse IGSF11; murine IGSF11 protein
# T1 sequence: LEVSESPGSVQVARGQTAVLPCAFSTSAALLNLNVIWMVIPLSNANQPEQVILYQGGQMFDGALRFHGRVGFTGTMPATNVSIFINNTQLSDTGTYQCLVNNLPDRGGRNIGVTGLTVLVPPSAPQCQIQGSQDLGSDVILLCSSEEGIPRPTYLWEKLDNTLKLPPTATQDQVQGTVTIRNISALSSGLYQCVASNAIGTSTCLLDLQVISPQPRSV
# T2: extracellular domain (ECD) of human IGSF11 (VSIG3), biotinylated (human, UniProt Q5DX21 23-241, biotinylated (site not stated))
# T2 construct: also called human IGSF11 protein
# T2 sequence: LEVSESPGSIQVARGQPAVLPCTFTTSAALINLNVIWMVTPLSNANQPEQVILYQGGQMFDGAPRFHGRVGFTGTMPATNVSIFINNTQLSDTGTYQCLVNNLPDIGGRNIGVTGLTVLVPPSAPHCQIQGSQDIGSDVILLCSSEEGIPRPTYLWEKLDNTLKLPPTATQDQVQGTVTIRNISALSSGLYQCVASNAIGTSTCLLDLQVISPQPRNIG
# B1: A-008 (scFv format) (scFv, V domains shown)
# VH: QLQLQESGPGLVKPSETLSLTCTVSGGSISSSGYYWGWIRQPPGKGLEWIGSIYYSGSTYYNPSLKSRVTISVDTSKNQFSLKLSSVTAADTAVYYCARHRVRFGEFDAFDIWGQGTMVTVSS
# VL: QAVLTQPPSVSGAPGERVTLSCTGTSSNVGADFDVHWYQQFPGTAPRLLIFGSDNRPSGVPDRFSGSKSGTSASLAITGLQVEDEADYYCQAYDVRLSGWVFGGGTKLTVL
# notes: scFv
# B2: A-012 (scFv format) (scFv, V domains shown)
# VH: EVQLLESGGGLIQPGGSLRLSCAVSGFTVSSNYMSWVRQAPGKGLEWVSVIYSGGSTYYADSVKGRFTISRDNSKNTLYLQMNSLRAEDTAVYYCARGNPYYYGDLQVNFDYWGQGTLVTVSS
# VL: QAVVTQEPSLTVSPGGTVTLTCASSTGAVTSGYYPNWFQQKPGQAPRALIYSTSNKHSWTPARFSGSLLGGKAALTLSGVQPEDEAEYYCLLYYGGAWVFGGGTKLTVL
# notes: scFv
# B3: A-002 (scFv format) (scFv, V domains shown)
# VH: B2 VH with L5V, V24A
# VL: B2 VL with L20P, A23G, Y33N, Y34L, F64I
# notes: scFv
# B4: A-013 (scFv format) (scFv, V domains shown)
# VH: B2 VH with L5V, V24A
# VL: B2 VL with G32A, E87D
# notes: scFv
# B5: A-005 (scFv format) (scFv, V domains shown)
# VH: B2 VH with L5V, V24A
# VL: B2 VL with G16E, K41R, H57D
# notes: scFv
# B6: A-006 (scFv format) (scFv, V domains shown)
# VH: B2 VH with L5V, V24A
# VL: B2 VL with A48P, E83D, A97D
# notes: scFv
# B7: A-001 (scFv format) (scFv, V domains shown)
# VH: EVQLVESGGGLVKPGGSLRLSCAASGFTFSSYSMNWVRQAPGKGLEWVSSISSSSSYIYYADSVKGRFTISRDNAKNSLYLQMNSLRAEDTAVYYCVRSIIVQALGITSVFDIWGQGTMVTVSS
# VL: AIRLTQSPSSLSASVGDRVTISCRASQIISNHLNWYQQKPGKAPKLLIYAASRLQTGVPSRFSGSGSETDYTLTISSLQPEDFATYYCQQSYSNPRTFGHGTKVEIK
# notes: scFv
# B8: A-004 (scFv format) (scFv, V domains shown)
# VH: EVQLVESGGGLVKPGGSLRLSCAASGFTFSSYSMNWVRQAPGKGLEWVSSISSSSSYIYYADSVKGRFTISRDNAKNSLYLQMNSLRAEDTAVYYCARGQLLWFGESALIDAFDIWGQGTMVTVSS
# VL: EIVLTQSPSSLSASVGDRVTITCRASQSISSYLNWYQLKPGKAPKLLIYAASILQSGVPSRFSGSGSGTDFTLTISSLQPEDFAAYYCQQSYSTPRTFGQGTKLEIK
# notes: scFv
# B9: A-035 (scFv format) (scFv, V domains shown)
# VH: QVQLVQSGAEVKKPGASVKVSCKASGYTFTGYYMHWVRQAPGQGLEWMGWINPNSGNTGYAQKFQGRVTMTRNTSISTAYMELSSLRSEDTAVYYCARGRLERGYWYFDLWGRGTLVTVSS
# VL: NFMLTQPHSVSESPGRTVTISCTRSSGSITSNYVQWYQQRPGSAPTILIYEDKERPSEVPDRFSGSIDISSNSASLTISGLKTEDEADYYCQSYGGTSQGVLFGGGTKVTVL
# notes: scFv
# B10: A-007 (scFv format) (scFv, V domains shown)
# VH: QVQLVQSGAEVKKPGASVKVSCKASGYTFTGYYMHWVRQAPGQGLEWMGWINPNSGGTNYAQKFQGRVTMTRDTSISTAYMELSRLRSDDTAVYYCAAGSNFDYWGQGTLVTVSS
# VL: QSALTQPASVSGSPGQSITIACTGSSSDIGSFSYVSWYQQRPGKAPTLIIYGVNNRPLGVSRRFSGSKSGNTASLSISGLQAEDEADYYCSSYTRRSTVIFGGGTKLTVL
# notes: scFv
# B11: A-033 (scFv format) (scFv, V domains shown)
# VH: QVQLVQSGAEVKKPGASVKVSCKASGYTFTSYGISWVRQAPGQGLEWMGWISAYNGNTNYAQKLQGRVTMTTDTSTSTAYMELRSLRSDDTAVYYCARDHSIVGATTFDYWGQGTLVTVSS
# VL: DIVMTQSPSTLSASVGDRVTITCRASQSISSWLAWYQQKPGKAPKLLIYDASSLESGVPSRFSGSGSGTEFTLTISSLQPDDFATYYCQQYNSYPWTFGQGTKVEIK
# notes: scFv
# B12: A-031 (scFv format) (scFv, V domains shown)
# VH: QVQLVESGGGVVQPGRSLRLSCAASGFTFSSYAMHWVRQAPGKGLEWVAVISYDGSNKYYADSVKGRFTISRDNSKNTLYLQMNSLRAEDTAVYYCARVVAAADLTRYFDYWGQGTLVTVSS
# VL: EIVLTQSPGTVSLSPGERATLSCRASQSVPKNYLAWFQQKPGQAPRLVIHTASSRAPGIPDRFTGSGSGTDFTLTISRLEPEDFAVYYCQQYGTSPNTFGQGTKLDIK
# notes: scFv
# B13: A-032 (scFv format) (scFv, V domains shown)
# VH: QVQLVQSGAEVKKPGASVKVSCKASGYTFTGYYMHWVRQAPGQGLEWMGWMNPNSGNTGYAQKFQGRVTMTRNTSISTAYMELSSLRSEDTAVYYCARGGQQQLVLDDYWGQGTLVTVSS
# VL: not shown
# B14: A-037 (scFv format) (scFv, V domains shown)
# VH: B13 VH with M51I
# VL: NFMLTQPHSVSESPGKTVTISCTGSSGSIASNYVQWYQQRPGSAPTTVIYEDNQRPSGVPDRFSGSIDSSSNSASLTISGLKTEDEADYYCQSYDSSNQRVFGGGTKLTVL
# notes: scFv
# B15: A-030 (scFv format) (scFv, V domains shown)
# VH: B13 VH with M51I
# VL: DIQLTQSPSTLSASVGDRVTITCRASQSIGGWLAWYQHKPGKAPKLLIYAASSLQSGVPSRFSGSGSGTDFTLTISSLQPEDFATYYCRQSYSTPPTFGQGTKVEIK
# notes: scFv
# B16: A-036 (scFv format) (scFv, V domains shown)
# VH: B13 VH with M51I, N57G, G59N
# VL: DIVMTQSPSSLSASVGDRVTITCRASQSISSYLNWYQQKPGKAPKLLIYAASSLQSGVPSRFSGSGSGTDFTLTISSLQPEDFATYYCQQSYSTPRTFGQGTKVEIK
# notes: scFv
# B17: A-034 (scFv format) (scFv, V domains shown)
# VH: QMQLVQSGGGLVKPGGSLRLSCAASGFTFSSYTMNWVRQAPGKGLEWVSSISSIGTYIYYADSVKGRFTISRDNAKNSLYLQMNSLRAEDTAVYYCARVLLSGSYYGYFDSWGQGTLVTVSS
# VL: QSVLTQPPSVSGAPGQRVTISCTGSSSNIGAGYDVHWYQQLPGTAPKLFIYGNSNRPSGVPDRFSGSKSGTSASLAITGLQAEDEADYYCQSYDSSLSGYVFGTGTKVTVL
# notes: scFv
# B18: A-011 (scFv format) (scFv, V domains shown)
# VH: QVQLVESGGGVVQPGRSLRLSCAASGFTFSSYAMHWVRQAPGKGLEWVAVISYDGSNKYYADSVKGRFTISRDNSKNTLYLQMNSLRAEDTAVYYCAEGGALNYYGMDVWGQGTTVTVSS
# VL: SSELTQDPGVSVALGQTVRITCQGDSLRHFYATWYQQKPGQAPILVIYGKNNRPSGIPDRFSGSSSEDTASLTITGAQAEDEADYYCQSRDPRNNHLIFGGGTKLIVL
# notes: scFv
# B19: A-009 (scFv format) (scFv, V domains shown)
# VH: QVQLVQSGAEVKKPGSSVKVSCKASGGTFSSYAISWVRQAPGQGLEWMGGIIPIFGTANYAQKFQGRVTITADESTSTAYMELSSLRSEDTAVYYCARGRGFGELYFDYWGQGTLVTVSS
# VL: ETTLTQSPATLSVSPGERATLSCRASQGVRSNIAWYQQKPGQAPRLLIYDSSTRATGIPARFSGSGSGTEFTLTISSLQSEDFAVYSCQQYKNWPRTFGQGTKVEIK
# notes: scFv
# B20: A-015 (scFv format) (scFv, V domains shown)
# VH: not shown
# VL: QPVLTQSPSASASLGASVKLTCTLSSGHTNYAIAWRQQQPGKAPRYLMLLNSDGSHTRGGGIPDRFSGSSSGAERYLTISSLQSEDEADYYCMIWHNNAWVFGGGTKLAVL
# notes: scFv
# B21: A-010 (scFv format) (scFv, V domains shown)
# VH: QVQLVQSGAEVKKPGASVKVSCKASGYTFTSYGISWVRQAPGQGLEWMGWISAYNGNTNYAQKLQGRVTMTTDTSTSTAYMELRSLRSDDTAVYYCARVPAWSGQFDYWGQGTLVTVSS
# VL: QSALTQPASVSGSPGQSITISCTGSSSDVGGYNYVSWYQQYPGKAPKLMIYDVRSRPSGVSNRFSGSKSGNTASLTISGLQAEDEADYYCTSYTSSNTLVIFGGGTKVTVL
# notes: scFv
# B22: A-014 (scFv format) (scFv, V domains shown)
# VH: QVQLVQSGAEVKKPGASVKVSCKASGYTFNDYYIHWVRQAPGQGLEWMGWFNPSTGGANYAQKFQGRVTMTRDTSISTAYLEVSSLRSDDTAVYYCARGNSPDLDYWGQGTLVTVSS
# VL: DIQMTQSPDSLTVSLGERATINCKSSQSLLHSSNNKNYLAWYQQRPGQPPKLLIYWASTRQSGVPDRFSGSGSGTDFTLTINSLQADDMAVYYCQQYYTTTPNTFGQGTKLEIK
# notes: scFv
# Target: T1, extracellular domain (ECD) of murine …
# Test: ELISA, scFv; RFU grade (*** >1.0, ** 0.5-1.0, * 0.1-0.5)
row,"relative fluorescent units (RFU), ELISA [rfu]",Binder
1,> 1,B1
2,0.5 to 1,B2
3,0.1 to 0.5,B3
4,0.5 to 1,B4
5,0.1 to 0.5,B5
6,0.5 to 1,B6
7,> 1,B7
8,> 1,B8
9,> 1,B9
10,0.5 to 1,B10
11,0.1 to 0.5,B11
12,0.1 to 0.5,B12
13,0.1 to 0.5,B13
14,0.1 to 0.5,B14
15,0.1 to 0.5,B15
16,0.1 to 0.5,B16
17,0.5 to 1,B17
18,> 1,B18
19,0.1 to 0.5,B19
20,0.5 to 1,B20
21,0.5 to 1,B21
22,0.1 to 0.5,B22

# Target: T2, extracellular domain (ECD) of human …
# Test: as above
row,"relative fluorescent units (RFU), ELISA [rfu]",Binder
1,> 1,B1
2,0.5 to 1,B2
3,0.5 to 1,B3
4,0.5 to 1,B4
5,0.5 to 1,B5
6,0.5 to 1,B6
7,> 1,B7
8,0.5 to 1,B8
9,0.5 to 1,B9
10,0.5 to 1,B10
11,0.1 to 0.5,B11
12,0.1 to 0.5,B12
13,0.1 to 0.5,B13
14,0.1 to 0.5,B14
15,0.1 to 0.5,B15
16,0.1 to 0.5,B16
17,> 1,B17
18,0.1 to 0.5,B18
19,0.5 to 1,B19
20,0.5 to 1,B20
21,0.5 to 1,B21
22,0.5 to 1,B22
